Values joined by “and” are separate entries in the source; they are usually repeats but may differ in a detail not shown here. Equal values may be shown once. Read-outs that look alike come from different tables or passages of the source.
Tests used:
[1] = target: human FcγRIIa (CD32a) R131 allele, histidine-tagged recombinant (human) (UniProt P12318); assay: SPR; His-tagged Fc receptor captured by anti-histidine antibody immobilised on CM5; antibody injected at 100 μg/mL for 1 min; response about 5 s before end of injection, blank subtracted; 25°C, HBS-EP+; Biacore T200
[2] = target: human FcγRIIb (CD32b), histidine-tagged recombinant (human) (UniProt P31994); assay: as above
[3] = target: human FcγRIIIa (CD16a) V158 allele, histidine-tagged recombinant (human) (UniProt P08637); assay: as above
[4] = target: rat FcγRI (CD64), histidine-tagged recombinant (rat); assay: as above
[5] = target: human FcγRIIIb (CD16b) NA2 allele, histidine-tagged recombinant (human) (UniProt O75015); assay: as above
[6] = target: human FcγRI (CD64), histidine-tagged recombinant (human) (UniProt P12314); assay: as above
[7] = target: human FcγRIIIa (CD16a) F158 allele, histidine-tagged recombinant (human) (UniProt P08637); assay: as above
[8] = target: human FcγRIIb (CD32b), histidine-tagged recombinant (human) (UniProt P31994)
[9] = target: human FcγRI (CD64), histidine-tagged recombinant (human) (UniProt P12314)
[10] = target: mouse FcγRI (CD64), histidine-tagged recombinant (mouse) (UniProt P26151); assay: SPR; His-tagged Fc receptor captured by anti-histidine antibody immobilised on CM5; antibody injected at 100 μg/mL for 1 min; response about 5 s before end of injection, blank subtracted; 25°C, HBS-EP+; Biacore T200
[11] = target: human FcRn, histidine-tagged recombinant (human) (UniProt P55899); assay: SPR; human FcRn immobilised directly on CM5 (EDC/NHS); antibody injected at 20 μg/mL (dose response in Fig 4); HBS-EP+ pH 6.0, 25°C; response normalised to wild type
[12] = target: human FcγRI (CD64), histidine-tagged recombinant (human) (UniProt P12314); assay: SPR; His-tagged Fc receptor captured by anti-histidine antibody immobilised on CM5; antibody injected at 100 μg/mL for 1 min; response about 5 s before end of injection, blank subtracted; 25°C, HBS-EP+; Biacore T200; remark: listed apart in the source
[13] = target: human FcγRIIIa (CD16a) V158 allele, histidine-tagged recombinant (human) (UniProt P08637)

Sequence of mouse FcγRI (CD64), histidine-tagged recombinant (mouse) (P26151 25-297): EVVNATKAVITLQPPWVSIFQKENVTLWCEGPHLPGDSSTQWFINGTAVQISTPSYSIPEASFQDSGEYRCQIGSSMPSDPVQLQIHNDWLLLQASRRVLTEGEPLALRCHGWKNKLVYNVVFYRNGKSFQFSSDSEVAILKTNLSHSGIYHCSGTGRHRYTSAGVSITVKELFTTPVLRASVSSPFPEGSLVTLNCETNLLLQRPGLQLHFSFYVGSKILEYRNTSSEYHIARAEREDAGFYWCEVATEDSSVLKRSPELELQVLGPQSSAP
Sequence of human FcRn, histidine-tagged recombinant (human) (P55899 24-297, chain 1 of 2): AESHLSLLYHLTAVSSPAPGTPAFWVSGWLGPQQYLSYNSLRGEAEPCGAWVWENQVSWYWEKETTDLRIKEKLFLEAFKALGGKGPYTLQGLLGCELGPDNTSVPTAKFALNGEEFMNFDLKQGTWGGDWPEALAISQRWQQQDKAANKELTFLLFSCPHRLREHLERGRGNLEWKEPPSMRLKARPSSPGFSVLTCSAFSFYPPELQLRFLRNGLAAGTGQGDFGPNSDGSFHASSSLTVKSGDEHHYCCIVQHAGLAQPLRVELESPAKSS
Sequence of human FcRn, histidine-tagged recombinant (human) (P61769 21-119, chain 2 of 2, further chain): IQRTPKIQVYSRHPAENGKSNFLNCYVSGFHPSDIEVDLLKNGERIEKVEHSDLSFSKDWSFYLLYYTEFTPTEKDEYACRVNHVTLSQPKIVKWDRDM
Sequence of human FcγRIIa (CD32a) R131 allele, histidine-tagged recombinant (human) (P12318 34-217): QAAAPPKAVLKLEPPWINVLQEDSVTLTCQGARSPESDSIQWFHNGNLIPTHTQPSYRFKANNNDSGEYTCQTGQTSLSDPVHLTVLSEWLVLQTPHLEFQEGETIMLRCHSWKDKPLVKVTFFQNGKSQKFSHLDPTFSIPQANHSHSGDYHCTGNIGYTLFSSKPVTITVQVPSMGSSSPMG
Sequence of human FcγRIIb (CD32b), histidine-tagged recombinant (human) (P31994 43-217): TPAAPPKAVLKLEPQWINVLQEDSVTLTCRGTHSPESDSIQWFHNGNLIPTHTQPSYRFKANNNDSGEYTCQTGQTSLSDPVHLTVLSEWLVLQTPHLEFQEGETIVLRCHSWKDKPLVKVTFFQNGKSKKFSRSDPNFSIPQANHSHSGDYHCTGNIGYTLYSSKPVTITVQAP
Sequence of human FcγRIIIb (CD16b) NA2 allele, histidine-tagged recombinant (human) (O75015 17-200): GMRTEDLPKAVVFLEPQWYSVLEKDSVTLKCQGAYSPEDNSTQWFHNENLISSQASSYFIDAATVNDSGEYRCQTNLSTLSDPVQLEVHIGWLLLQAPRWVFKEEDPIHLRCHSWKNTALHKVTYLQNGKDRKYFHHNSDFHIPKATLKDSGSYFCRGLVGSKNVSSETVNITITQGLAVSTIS
Sequence of human FcγRI (CD64), histidine-tagged recombinant (human) (P12314 16-292): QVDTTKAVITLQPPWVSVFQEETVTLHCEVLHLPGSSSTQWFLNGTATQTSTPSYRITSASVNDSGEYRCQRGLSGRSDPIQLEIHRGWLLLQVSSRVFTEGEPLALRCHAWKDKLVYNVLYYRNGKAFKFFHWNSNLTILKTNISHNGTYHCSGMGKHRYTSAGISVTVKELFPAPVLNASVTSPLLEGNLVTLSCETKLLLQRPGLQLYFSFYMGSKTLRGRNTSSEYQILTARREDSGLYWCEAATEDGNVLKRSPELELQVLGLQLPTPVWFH
Sequence of human FcγRIIIa (CD16a) V158 allele, histidine-tagged recombinant (human) (P08637 17-208): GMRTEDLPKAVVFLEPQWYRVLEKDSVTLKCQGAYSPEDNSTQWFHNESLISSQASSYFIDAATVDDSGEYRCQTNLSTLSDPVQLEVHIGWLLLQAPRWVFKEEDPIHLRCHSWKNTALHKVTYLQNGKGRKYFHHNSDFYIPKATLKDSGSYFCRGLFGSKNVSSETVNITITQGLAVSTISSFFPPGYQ
Sequence of human FcγRIIIa (CD16a) F158 allele, histidine-tagged recombinant (human) (P08637 17-208): as above

Substance	mean response [1] [RU]	mean response [2] [RU]	mean response [3] [RU]	mean response [4] [RU]	mean response [5] [RU]	mean response [6] [RU]	mean response [7] [RU]	Mean normalised luminescence (% of wild-type reference); Promega Fc effector bioassay, Jurkat NFAT-luciferase cells with the receptor + Raji cells, antibody 10 μg/mL [8] [%]	Mean normalised luminescence (% of wild-type reference); Promega Fc effector bioassay, Jurkat NFAT-luciferase cells with the receptor + Raji cells, antibody 10 μg/mL [9] [%]	mean response [10] [RU]	mean normalised binding response (% of wild-type reference) [11] [%]	mean response [12] [RU]	Mean normalised luminescence (% of wild-type reference); Promega Fc effector bioassay, Jurkat NFAT-luciferase cells with the receptor + Raji cells, antibody 10 μg/mL [13] [%]	response [12]
anti-CD20 IgG1 L234T/L235T/G236R (antibody)	1.9	0.6	-0.2	-0.8	-0.1	-2.7	1.6	1.9	1.9					
anti-CD52 IgG1 L234A/L235A/P329G (LALAPG) (antibody)				-0.8		33.7				-2.1	105			
anti-CD3 IgG1 L234T/L235T/G236R (antibody)	-2.8	-3.3	-8.6	-3.5	-4.4	-3.1	-2			-5.5				
anti-CD52 IgG1 N297Q (aglycosyl) (antibody)						431				50.4	103			
anti-CD52 IgG1 L234G/L235S/G236R (antibody)	-3.5	-5.5	-2.4	-1.7	-4.8	-3.5	-4.2			-2.3	118			
anti-CD52 IgG1 L234A/L235A (LALA) (antibody)				-0.7		452				1.8	105			
anti-CD3 IgG1 L234A/L235A/P329G (LALAPG) (antibody)				-5.2						-6.2				
anti-CD20 IgG1 L234G/L235S/G236R (antibody)	2.1	-0.1	1	-3.9	-1.6	-1.5	1	1.7		-2.1		1.9	2.5	
anti-CD20 IgG1 L234A/L235A (LALA) (antibody)				-5.3				40.6		-12.2				
anti-CD20 IgG1 L234S/L235V/G236R (antibody)	0.3	-0.8	0.8	-0.4	0.6	-1.6	0	1.7	1.9	0.1		2.4	2.1	2.1 RU and 4.3 RU
anti-CD20 IgG1 L234S/L235T/G236R (antibody)	2.6	0.5	-6.3	-2.4	-3	-1.3	1.9			-5.4				
anti-CD52 IgG1 L234T/L235Q/G236R (antibody)	-2.2	1.3	-3.1	0.5	0.4	-10.6	0.7			-1.4	115			
anti-CD3 IgG1 L234A/L235A (LALA) (antibody)				-4.9						-3.3				
anti-CD20 IgG1 L234T/L235Q/G236R (antibody)	0.2	-1.1	-4	-2.5	-1.5	-1.9	-0.5	1.7	1.9	-4.1		3	2.1	4.5 RU
anti-CD52 IgG1 L234S/L235V/G236R (antibody)	-4.2	2.4	-1.3	-2.1	2.6	-20.3	2.2			-2.5	119			
anti-CD20 IgG1 L234A/L235A/P329G (LALAPG) (antibody)				0.7				1.7		2.4			2.1	
anti-CD52 IgG1 L234T/L235T/G236R (antibody)	-8.7	-0.1	-2	-3.4	0.8	-20.7	-1.9			-3.9	118			
anti-CD3 IgG1 L234S/L235T/G236R (antibody)	1.4	3.9	-11.3	-5.1	4.7	-5.2	3.3			-7.5				
anti-CD52 IgG1 L234S/L235T/G236R (antibody)	-3.1	-4.4	-5.6	-2.9	-4.3	-5.1	-3.3			-4.6	116			
anti-CD20 IgG1 N297Q (aglycosyl) (antibody)								1.6						
anti-CD3 IgG1 L234S/L235V/G236R (antibody)	-3.4	-4.2	-12.7	-4.8	-4.8	-5.4	-3.4			-8.1				
anti-CD3 IgG1 L234T/L235Q/G236R (antibody)	-0.2	-2.8	-10.7	-2.4	-3	-3.2	-0.9			-5.8				
anti-CD3 IgG1 L234G/L235S/G236R (antibody)	-4.8	-5.1	-14.4	-4.2	-6.4	-5.2	-4.7			-5.9				
